The text below walks through data of article PMC5727476.

The target in assay [1] is Eudiplozoon nipponicum cathepsin B (EnCB) (Eudiplozoon nipponicum).
In assay [2] the target is recombinant Ixodes ricinus asparaginyl endopeptidase (IrAe) (Ixodes ricinus).
The target of assay [3] is Eudiplozoon nipponicum cathepsin L3 (EnCL3) (Eudiplozoon nipponicum).
Assay [4] concerns the target recombinant mouse cathepsin L (MmCL) (mouse) (UniProt P06797).
UniProt P06797, sequence (P06797 18-334): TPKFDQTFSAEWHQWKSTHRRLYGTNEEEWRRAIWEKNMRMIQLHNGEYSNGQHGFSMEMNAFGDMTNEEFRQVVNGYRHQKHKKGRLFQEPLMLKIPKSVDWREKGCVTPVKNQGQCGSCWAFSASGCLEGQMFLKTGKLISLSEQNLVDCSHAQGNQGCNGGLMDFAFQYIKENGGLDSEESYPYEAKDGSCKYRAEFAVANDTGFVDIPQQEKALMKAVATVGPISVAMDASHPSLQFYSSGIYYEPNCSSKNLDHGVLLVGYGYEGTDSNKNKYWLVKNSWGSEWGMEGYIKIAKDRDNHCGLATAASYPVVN

Consider “recombinant Eudiplozoon nipponicum stefin (rEnStef) (natural protein)”, for which the results for the IC50 of inhibition of peptidase activity (continuous fluorometric assay, Z-Phe-Arg-AMC, 25 mM MES pH 6, 5 mM DTT; peptidase 10 nM) in assay [1] and in assay [3] were 0.0137 µM and 0.0467 µM, respectively. Also, in assay [2], the IC50 of inhibition of peptidase activity (continuous fluorometric assay, Z-Ala-Ala-Asn-AMC, 25 mM MES pH 6, 5 mM DTT; peptidase 10 nM) amounted to 0.371 µM. For the same substance, the IC50 of inhibition of peptidase activity (continuous fluorometric assay, Z-Phe-Arg-AMC, 25 mM MES pH 6, 5 mM DTT; peptidase 5 nM) in assay [4] amounted to 0.133 µM.
